Target: rabbit anti-CS198 peptide antiserum raised against the unconjugated peptide of SEQUENCE ID NO 44 (13 week bleed)
Assay: Western blot competition: antiserum pre-incubated overnight at 4 C with varying concentrations of peptide immunogen before exposure to the filter carrying the 45 kD band

B1: CS198 synthetic peptide of SEQUENCE ID NO 44 (peptide)
peptide: RLQKSQSSDLLERERESVLRREQEVAEERRN
With B1 the concentration of peptide at which antibody binding to the band was inhibited was 2.6 µM.
